Starred links: 1 amine or outer side, 2 acyl side, 3 side chain; linkers in the order of their positions; H or OH if unused. Non-standard residues stand in square brackets, D forms with d. Groups on a side chain read outwards from the residue. No end group written: not given here. *: point of attachment. C20 diacid = O=C(O)CCCCCCCCCCCCCCCCCCC(=O)*; γGlu = O=C(O)[C@H](CCC(=O)[*:2])N[*:1]; 4Pal = N[C@@H](Cc1ccncc1)C(=O)O; αMeL = CC(C)C[C@](C)(N)C(=O)O; AEEA = NCCOCCOCC(=O)O; Aib = CC(C)(N)C(=O)O
T1: human glucose-dependent insulinotropic polypeptide (GIP) receptor (human, UniProt P48546 22-466)
T1 construct: whole, on cells; Assayed as crude membranes of stably transfected CHO cells; also called hGIPR; human GIP receptor
T1 sequence (looked up): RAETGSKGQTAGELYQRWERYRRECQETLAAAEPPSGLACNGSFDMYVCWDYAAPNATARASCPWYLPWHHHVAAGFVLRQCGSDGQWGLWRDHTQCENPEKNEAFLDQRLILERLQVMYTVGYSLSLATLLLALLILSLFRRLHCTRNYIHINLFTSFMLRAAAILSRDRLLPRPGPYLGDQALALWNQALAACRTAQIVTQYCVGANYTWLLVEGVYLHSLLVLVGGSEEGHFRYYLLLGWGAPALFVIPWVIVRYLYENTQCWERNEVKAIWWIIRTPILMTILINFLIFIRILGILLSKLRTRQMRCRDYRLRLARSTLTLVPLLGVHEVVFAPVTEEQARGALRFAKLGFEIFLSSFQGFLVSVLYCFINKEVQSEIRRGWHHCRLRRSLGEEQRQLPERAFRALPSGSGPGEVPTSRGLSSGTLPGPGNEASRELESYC

B1: Example 3 (peptide)
peptide: Y[Aib]EGTFISDYSI[αMeL]LDKK([AEEA-AEEA-γGlu-C20 diacid])HQ[Aib]DFVE[4Pal]LLEAGPSSGAPPPS-NH2
modifications: N-terminus assumed
SMILES: CC[C@H](C)[C@H](NC(=O)[C@H](Cc1ccccc1)NC(=O)[C@@H](NC(=O)CNC(=O)[C@H](CCC(=O)O)NC(=O)C(C)(C)NC(=O)[C@@H](N)Cc1ccc(O)cc1)[C@@H](C)O)C(=O)N[C@@H](CO)C(=O)N[C@@H](CC(=O)O)C(=O)N[C@@H](Cc1ccc(O)cc1)C(=O)N[C@@H](CO)C(=O)N[C@H](C(=O)N[C@@](C)(CC(C)C)C(=O)N[C@@H](CC(C)C)C(=O)N[C@@H](CC(=O)O)C(=O)N[C@@H](CCCCN)C(=O)N[C@@H](CCCCNC(=O)COCCOCCNC(=O)COCCOCCNC(=O)CC[C@H](NC(=O)CCCCCCCCCCCCCCCCCCC(=O)O)C(=O)O)C(=O)N[C@@H](Cc1c[nH]cn1)C(=O)N[C@@H](CCC(N)=O)C(=O)NC(C)(C)C(=O)N[C@@H](CC(=O)O)C(=O)N[C@@H](Cc1ccccc1)C(=O)N[C@H](C(=O)N[C@@H](CCC(=O)O)C(=O)N[C@@H](Cc1ccncc1)C(=O)N[C@@H](CC(C)C)C(=O)N[C@@H](CC(C)C)C(=O)N[C@@H](CCC(=O)O)C(=O)N[C@@H](C)C(=O)NCC(=O)N1CCC[C@H]1C(=O)N[C@@H](CO)C(=O)N[C@@H](CO)C(=O)NCC(=O)N[C@@H](C)C(=O)N1CCC[C@H]1C(=O)N1CCC[C@H]1C(=O)N1CCC[C@H]1C(=O)N[C@@H](CO)C(N)=O)C(C)C)[C@@H](C)CC
B2: Example 46 (peptide)
peptide: Y[Aib]EGTFISDYSI[αMeL]LDKK([AEEA-AEEA-γGlu-C20 diacid])HQ[Aib]DFVE[4Pal]LLEQGPSSGAPPPS-NH2
modifications: N-terminus assumed
SMILES: CC[C@H](C)[C@H](NC(=O)[C@H](Cc1ccccc1)NC(=O)[C@@H](NC(=O)CNC(=O)[C@H](CCC(=O)O)NC(=O)C(C)(C)NC(=O)[C@@H](N)Cc1ccc(O)cc1)[C@@H](C)O)C(=O)N[C@@H](CO)C(=O)N[C@@H](CC(=O)O)C(=O)N[C@@H](Cc1ccc(O)cc1)C(=O)N[C@@H](CO)C(=O)N[C@H](C(=O)N[C@@](C)(CC(C)C)C(=O)N[C@@H](CC(C)C)C(=O)N[C@@H](CC(=O)O)C(=O)N[C@@H](CCCCN)C(=O)N[C@@H](CCCCNC(=O)COCCOCCNC(=O)COCCOCCNC(=O)CC[C@H](NC(=O)CCCCCCCCCCCCCCCCCCC(=O)O)C(=O)O)C(=O)N[C@@H](Cc1c[nH]cn1)C(=O)N[C@@H](CCC(N)=O)C(=O)NC(C)(C)C(=O)N[C@@H](CC(=O)O)C(=O)N[C@@H](Cc1ccccc1)C(=O)N[C@H](C(=O)N[C@@H](CCC(=O)O)C(=O)N[C@@H](Cc1ccncc1)C(=O)N[C@@H](CC(C)C)C(=O)N[C@@H](CC(C)C)C(=O)N[C@@H](CCC(=O)O)C(=O)N[C@@H](CCC(N)=O)C(=O)NCC(=O)N1CCC[C@H]1C(=O)N[C@@H](CO)C(=O)N[C@@H](CO)C(=O)NCC(=O)N[C@@H](C)C(=O)N1CCC[C@H]1C(=O)N1CCC[C@H]1C(=O)N1CCC[C@H]1C(=O)N[C@@H](CO)C(N)=O)C(C)C)[C@@H](C)CC

What was measured:
[1] = molecular target: T1, human glucose-dependent insulinotropic …; experiment: SPA, displacement of [125I]-GIP from hGIPR membranes, 0.1% bacitracin
human GLP-1 receptor = molecular target: T2, human GLP-1 receptor (human, UniProt P43220 24-463); experiment: SPA, displacement of [125I]-GLP-1 from hGLP-1R membranes, 0.1% bacitracin
T2 construct: whole, on cells; Assayed as crude membranes of stably transfected HEK293 cells; also called hGLP1R; hGLP-1R
Outline: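 Binding buffer: 25 mM HEPES pH 7.4, 2.5 mM CaCl₂, 1 mM MgCl₂, 0.1% bacitracin, 0.003% Tween-20, protease inhibitors without EDTA. Four-parameter nonlinear regression; Kᵢ given as geometric mean ± SEM, n = independent replicates run on different days.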

human glucagon receptor = molecular target: T3, human glucagon receptor (human, UniProt P47871 26-477); experiment: SPA, displacement of [125I]-Gcg from hGcgR membranes, 0.1% bacitracin
T3 construct: whole, on cells; Assayed as crude membranes of stably transfected HEK293 cells; also called hGcgR; GcgR
T3 sequence (P47871 26-477): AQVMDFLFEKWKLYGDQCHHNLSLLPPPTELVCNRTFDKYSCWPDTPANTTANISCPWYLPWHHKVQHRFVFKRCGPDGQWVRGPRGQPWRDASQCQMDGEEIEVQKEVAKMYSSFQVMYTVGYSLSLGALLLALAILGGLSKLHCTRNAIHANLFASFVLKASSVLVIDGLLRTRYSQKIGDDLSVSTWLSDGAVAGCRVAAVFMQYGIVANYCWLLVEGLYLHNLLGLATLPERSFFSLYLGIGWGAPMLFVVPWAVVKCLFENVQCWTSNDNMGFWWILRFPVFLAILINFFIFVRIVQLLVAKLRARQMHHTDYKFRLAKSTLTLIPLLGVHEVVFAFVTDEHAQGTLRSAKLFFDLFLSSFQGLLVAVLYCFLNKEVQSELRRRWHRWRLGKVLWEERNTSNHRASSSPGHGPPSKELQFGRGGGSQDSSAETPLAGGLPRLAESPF
Experimental: The binding buffer contains 25 mM 4-(2-hydroxyethyl)-1-piperazineethanesulfonic acid (HEPES), pH 7.4, 2.5 mM CaCl₂), 1 mM MgCl₂, 0.1% (w/v) bacitracin (Research Products), 0.003% (w/v) Polyoxyethylenesorbitan monolaurate (TWEEN®-20), and Roche Complete™ Protease Inhibitors without EDTA. […] Plates are sealed and mixed on a plate shaker (setting 6) for 1 minute and read with a PerkinElmer Trilux MicroBeta® scintillation counter after 12 hours of incubation/settling time at room temperature.
Data are analyzed using four-parameter (curve maximum, curve minimum, […], Hill slope) nonlinear regression routines (Genedata Screener, version 12.0.4, Genedata AG, Basal, Switzerland). […] Values for Kᵢ are reported as the geometric mean, with error expressed as the standard error of the mean (SEM) and n is equal to the number of independent replicates (determined in assays performed on different days).

Row | Binder | Ki [1] [nM] | Ki (human GLP-1 receptor) [nM] | Ki (human glucagon receptor) [nM]
1 | B1 | 0.0525 | 381 | 338
2 | B2 | 0.0319 | 744 | 435
